Where no end group is shown, it is not given here. [ ]: non-standard residue; d: D form. Met(O) = CS(=O)CC[C@H](N)C(=O)O; pS = N[C@@H](COP(=O)(O)O)C(=O)O
What was measured:
[1] = target: Recombinant bovine HSC70 (Stressgen) (bovine) (UniProt P19120); assay: SPR (BIAcore 3000), bovine HSC70 immobilized, peptide at 12.5 µM, 1:1 Langmuir fit
[2] = target: Recombinant bovine HSC70 (Stressgen) (bovine) (UniProt P19120); assay: SPR (BIAcore 3000), bovine HSC70 immobilized, peptide at 25 µM, 1:1 Langmuir fit
[3] = target: Recombinant bovine HSC70 (Stressgen) (bovine) (UniProt P19120); assay: SPR (BIAcore 3000), bovine HSC70 immobilized, peptide as analyte, 1:1 Langmuir fit, 25 C
[4] = target: Recombinant bovine HSC70 (Stressgen) (bovine) (UniProt P19120); assay: SPR (BIAcore 3000), bovine HSC70 immobilized, peptide at 3.12 µM, 1:1 Langmuir fit
[5] = target: Recombinant bovine HSC70 (Stressgen) (bovine) (UniProt P19120); assay: SPR (BIAcore 3000), bovine HSC70 immobilized, peptide at 6.25 µM, 1:1 Langmuir fit
[6] = target: Recombinant bovine HSC70 (Stressgen) (bovine) (UniProt P19120); assay: SPR (BIAcore 3000), bovine HSC70 immobilized, peptide at 1.56 µM, 1:1 Langmuir fit

Sequence of Recombinant bovine HSC70 (Stressgen) (bovine) (P19120 whole entry): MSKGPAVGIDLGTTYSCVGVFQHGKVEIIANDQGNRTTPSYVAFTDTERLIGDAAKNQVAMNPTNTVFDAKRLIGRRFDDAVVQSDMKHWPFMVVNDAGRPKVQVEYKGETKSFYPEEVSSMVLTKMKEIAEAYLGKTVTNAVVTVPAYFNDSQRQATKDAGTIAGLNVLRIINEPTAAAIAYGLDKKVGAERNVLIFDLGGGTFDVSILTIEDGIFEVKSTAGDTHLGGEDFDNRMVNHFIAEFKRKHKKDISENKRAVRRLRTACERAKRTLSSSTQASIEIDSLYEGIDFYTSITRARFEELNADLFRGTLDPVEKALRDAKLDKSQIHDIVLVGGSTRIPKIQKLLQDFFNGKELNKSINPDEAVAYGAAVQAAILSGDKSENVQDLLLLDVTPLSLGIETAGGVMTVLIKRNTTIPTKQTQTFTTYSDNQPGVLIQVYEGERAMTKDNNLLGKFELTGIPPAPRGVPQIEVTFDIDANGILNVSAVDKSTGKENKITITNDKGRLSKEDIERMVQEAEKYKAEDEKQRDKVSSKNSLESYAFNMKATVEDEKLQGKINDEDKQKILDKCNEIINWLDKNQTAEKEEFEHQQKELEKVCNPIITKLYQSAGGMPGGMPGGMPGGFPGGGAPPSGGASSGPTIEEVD

Ka [1]	Kd [1]	Req (RU) [1]	kobs [1]	koff [1]	Ka [2]	Kd [2]	Req (RU) [2]	kobs [2]	koff [2]	kon [3]	Ka [4]	Kd [4]	Req (RU) [4]	kobs [4]	koff [4]	Ka [5]	Kd [5]	Req (RU) [5]	kobs [5]	Binder	also measured
524000 M⁻¹	1.91 µM	33.9 RU	0.0166 s⁻¹	0.0022 s⁻¹	524000 M⁻¹	1.91 µM	36.3 RU	0.031 s⁻¹	0.0022 s⁻¹	1150 M⁻¹ s⁻¹	524000 M⁻¹	1.91 µM	24.2 RU	0.0058 s⁻¹	0.0022 s⁻¹	524000 M⁻¹	1.91 µM	29.9 RU	0.0094 s⁻¹	RIH[Met(O)]VYSKR[pS]GKPRGYAFIEY	koff [5]: 0.0022 s⁻¹; Ka [6]: 524000 M⁻¹; Kd [6]: 1.91 µM; Req (RU) [6]: 17.6 RU; kobs [6]: 0.004 s⁻¹; koff [6]: 0.0022 s⁻¹
144000 M⁻¹	6.94 µM	53.6 RU	0.00874 s⁻¹	0.00312 s⁻¹	144000 M⁻¹	6.94 µM	65.2 RU	0.0144 s⁻¹	0.00312 s⁻¹	450 M⁻¹ s⁻¹	144000 M⁻¹	6.94 µM	25.8 RU	0.00452 s⁻¹	0.00312 s⁻¹	144000 M⁻¹	6.94 µM	39.5 RU	0.00593 s⁻¹	RIHMVYSKR[pS]GKPRGYAFIEY [P140 peptide (peptide consisting of SEQ ID NO: 1, in which serine at position 10 is phosphorylated)]	koff [5]: 0.00312 s⁻¹; Ka [6]: 144000 M⁻¹; Kd [6]: 6.94 µM; Req (RU) [6]: 15.3 RU; kobs [6]: 0.00382 s⁻¹; koff [6]: 0.00312 s⁻¹

Reference: patent publication US20170226167A1
